Our source for the stoichiometry N (CAL1 per CENP-A/H4 heterodimer) values is article doi:10.1101/723213.

For assay [1], the target named is CENP-A_(144-225)–H4 heterodimer (Drosophila melanogaster), Q9V6Q2. The assay is described as follows: SEC-MALS. Conditions: remark: other sources report otherwise.
Assay [2] has as its target CENP-A_(101-225)–H4 heterodimer (Drosophila melanogaster), Q9V6Q2. The assay is described as follows: SEC-MALS. The following applies: remark: other sources report otherwise. On the technique in general: Size exclusion chromatography separates by hydrodynamic size, large species first.

CENP-A_(144-225)–H4 heterodimer (Drosophila melanogaster), Q9V6Q2, sequence (Q9V6Q2 144-225, one chain of several): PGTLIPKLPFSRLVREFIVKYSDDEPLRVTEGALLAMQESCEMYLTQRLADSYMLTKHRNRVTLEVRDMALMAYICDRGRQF
CENP-A_(101-225)–H4 heterodimer (Drosophila melanogaster), Q9V6Q2, sequence (Q9V6Q2 101-225, one chain of several): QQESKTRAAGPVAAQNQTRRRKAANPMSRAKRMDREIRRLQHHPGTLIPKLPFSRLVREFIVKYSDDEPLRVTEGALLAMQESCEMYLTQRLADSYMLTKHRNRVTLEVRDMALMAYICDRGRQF

B1: His-CAL1_(1-160), Q9VEN2 1-160 (domain or fragment)
chain: MANAVVDEETLEAMVYERSKAWSSKMADFASLEDGMEIDVAEFDNLFHGEDEDPDLDDVAKEAVEDNVPDEAKLEMGHINATSVTELTLILCANEDNEAKAEIEEILNQTVPVVEEHKRKWREAGLDRILDTFDEKQIEHHVGRWMRRHNSVYLEASPPK
On to B1, for which the stoichiometry N (CAL1 per CENP-A/H4 heterodimer) in assay [1] and in assay [2] was 1 throughout.
